Substitutions are numbered along the chain they refer to. Numbers in names are those of the source. Like-named read-outs stand apart in the source and are kept apart here.
B1: 32H3 (antibody, V domains shown)
VH: EVQLLESGGGLVQPGGSLRLSCAASGFTFSSYAMSWVRQAPGKGLKWVSAISGGAGNTYYADSVKGRFTISRDISKSTVYLQMTSLRAEDTAIYYCAKDGVGTTGGYFYYHGMDVWGQGTTVTVSS
VL: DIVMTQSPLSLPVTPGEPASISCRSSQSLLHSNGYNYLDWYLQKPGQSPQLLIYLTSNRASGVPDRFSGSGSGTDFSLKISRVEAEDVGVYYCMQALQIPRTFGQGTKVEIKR
notes: IgG2 or IgG4, purified from hybridoma supernatant; also called 32H3.1; Ab-12
B2: 1E1-PEG4-Mal-DM4 (antibody, V domains shown)
VH: QVQLVQSGAEVKKPGASVKVSCKASGYTFTGHYIHWVRQAPGQGLEWMGWIYPNSGGTNYAQKFQGRVTMTRDTSISTAYMELSRLRSDDSAVYYCAREGMVTGDYYYYRMDVWGQGTTVIVSS
VL: QPVLTQPPSASASLGASVTLTCSLSSGYSNYKVDWYQQRPGKGPRFVMRVGIGGIVGSKGDGIPDRFSVLGSGLNRYLTIKNIQEEDESDFHCGADHGSGNNFVYVFGTGTKVTVLG
B3: 1E1-MCC-DM1 (antibody, V domains shown)
VH: B2 VH
VL: B2 VL
B4: 30E1 (antibody, V domains shown)
VH: EVQLLESGGGLVQPGGSLRLSCAASGFTFSSHAMSWVRQAPGKGLEWVSAISGGDGNTYYADSVKGRFAISRDNSKNVVYLQMNSLRAEDTAVYFCAKDLVGVVAGYYYYFGMDVWGQGTTVTVSS
VL: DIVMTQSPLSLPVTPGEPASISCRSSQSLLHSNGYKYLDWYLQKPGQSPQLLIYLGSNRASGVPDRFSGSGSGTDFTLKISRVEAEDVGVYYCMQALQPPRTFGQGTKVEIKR
notes: IgG2 or IgG4, purified from hybridoma supernatant; also called 30E1.1; Ab-9
B5: 2A1-PEG4-Mal-DM4 (antibody, V domains shown)
VH: EVQLVESGGGLVKPGRSLRLSCTASGFTFGDYALSWFRQAPGKGLEWVGVSRSKAYGGTTDYAASVKGRFTISRDDSKSFAYLQMNSLKTEDTAVYYCCSSGYSSGWTPFDYWGQGTLVTVSS
VL: not shown
modifications: PEG4-Mal-DM4 conjugated, sites not stated
B6: 2A1-MCC-DM1 (antibody, V domains shown)
VH: B5 VH
VL: not shown
modifications: MCC-DM1 conjugated, sites not stated
B7: 2A1-S108R (antibody, V domains shown)
VH: B5 VH with S100R
VL: not shown
B8: 2A1CV5-MCC-DM1 (Ab-1 ADC) (antibody, human IgG1, lambda, V domains shown)
VH: B5 VH with R16G, T23A, F80T, C99A
VL: not shown
modifications: MCC-DM1 conjugated, sites not stated
B9: 32B5-MCC-DM1 (antibody, V domains shown)
VH: EVQLLESGGALVQPGGSLRLSCAASGFTFSSYAMNWVRQAPGKGLEWVSAISVGGDTYYADSVKGRFTISRDNSKNTLYLHVNSLSAEDSAVYYCAKDQVTLVRGVWYYYGLDVWGQGTTVTVSS
VL: VIVLIQSPLSLPVTPGEPASISCRSSQSLLHSNGNNYLDWYLQKPGQSPHLLISLGSNRTSGVPDRFSGSGSGTDFTLKISRVEAEDVGFYYCMQALQPPRRFGQGTKLEIKR
notes: MCC-DM1 conjugate of '32B5'
B10: Ab-2 (29C12_mut) (antibody, human IgG1, kappa, V domains shown)
VH: B9 VH with A10G, H81Q, V82M, S86R, S90T, L102M
VL: B9 VL with V1D, L4M, I5T, N58Q, F90V
notes: Human IgG1; also called 29C12 CV2; 29C12cv2
B11: 29C12-MCC-DM1 (antibody, V domains shown)
VH: B9 VH with H81Q, V82M, S86R, S90T, L102M
VL: B9 VL with V1D, L4M, F90V
B12: 35D2 (antibody, V domains shown)
VH: B9 VH with D56G, S86R, S90T, L102M
VL: B9 VL
notes: IgG2 or IgG4, purified from hybridoma supernatant; also called 35D2.1; Ab-15
B13: 32B5 (antibody, V domains shown)
VH: B9 VH
VL: B9 VL
notes: IgG2 or IgG4 as purified from hybridoma (32B5.1); later converted to human IgG1; an engineered version may be meant there; also called 32B5.1; Ab-10
B14: Ab-3 (32B5_mut) (antibody, human IgG1, kappa, V domains shown)
VH: B9 VH with A10G, H81Q, S86R
VL: B9 VL with V1D, I5T, N58Q, F90V
notes: Human IgG1; also called 32B5 CV2; 32B5cv2
B15: 29C12 (antibody, V domains shown)
VH: B9 VH with H81Q, V82M, S86R, S90T, L102M
VL: B9 VL with V1D, L4M, F90V
notes: IgG2 or IgG4 as purified from hybridoma (29C12.1); later converted to human IgG1; an engineered version may be meant there; also called 29C12.1; Ab-8
B16: 37B2 (antibody, V domains shown)
VH: B9 VH with S31N
VL: B9 VL
notes: IgG2 or IgG4, purified from hybridoma supernatant; also called 37B2.1; Ab-16

Tests used:
[1] = biological target: T1, human BCMA (huBCMA) on cells (human, UniProt Q02223 1-184); experiment: FACS, hu BCMA
T1 construct: endogenous on H929, JD38 and other myeloma and B-cell lines and on patient plasma cells; also called native human BCMA
T1 chain: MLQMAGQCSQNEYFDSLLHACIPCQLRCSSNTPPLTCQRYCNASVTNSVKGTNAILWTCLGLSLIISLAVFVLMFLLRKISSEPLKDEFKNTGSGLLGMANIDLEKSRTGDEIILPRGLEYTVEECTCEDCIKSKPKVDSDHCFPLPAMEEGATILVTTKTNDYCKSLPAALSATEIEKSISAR

[2] = biological target: T2, TACI on transiently transfected cells (human, UniProt O14836 1-293); experiment: FACS, hu TACI
T2 construct: whole, on cells; also called huTACI
T2 sequence (looked up): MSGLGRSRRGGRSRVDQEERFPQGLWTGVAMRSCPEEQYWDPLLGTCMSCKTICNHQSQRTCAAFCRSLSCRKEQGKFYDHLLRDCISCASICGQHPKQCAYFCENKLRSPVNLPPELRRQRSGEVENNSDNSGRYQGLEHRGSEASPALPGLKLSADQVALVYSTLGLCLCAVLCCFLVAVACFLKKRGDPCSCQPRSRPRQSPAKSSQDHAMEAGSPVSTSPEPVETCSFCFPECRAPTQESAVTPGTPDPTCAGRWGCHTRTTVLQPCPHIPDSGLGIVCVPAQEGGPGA

[3] = biological target: T3, cynomolgus (Macaca fascicularis) BCMA on cells (cynomolgus (Macaca fascicularis), UniProt Q02223 1-184 (human entry)); experiment: FACS, Cyno BCMA
T3 construct: also called cyno BCMA; cynomolgus BCMA
T3 sequence (Q02223 other isoform, or with tags, fused parts or gaps): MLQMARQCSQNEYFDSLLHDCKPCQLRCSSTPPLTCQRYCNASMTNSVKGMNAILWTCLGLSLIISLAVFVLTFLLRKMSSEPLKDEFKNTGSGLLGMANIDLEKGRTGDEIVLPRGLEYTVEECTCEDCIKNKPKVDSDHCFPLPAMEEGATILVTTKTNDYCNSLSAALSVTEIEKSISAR

[4] = biological target: T3, cynomolgus (Macaca fascicularis) BCMA …; experiment: CynoBCMA O/N FACS
[5] = biological target: T1, human BCMA (huBCMA) on cells; experiment: cell-based or functional assay
[6] = biological target: T1, human BCMA (huBCMA) on cells; experiment: cell-based or functional assay
[7] = biological target: T1, human BCMA (huBCMA) on cells; experiment: FACS, H929 cells
[8] = biological target: T1, human BCMA (huBCMA) on cells; experiment: FACS on H929 cells (native BCMA, relative binding, indirect)
[9] = biological target: T4, rhuBCMA fusion protein (6xHis::Sumo::huBCMA(aa 5-51)::GGS::G3::Avi) (human); experiment: Biacore, antibody captured, rhu BCMA analyte
T4 construct: the preparation also held C-terminally clipped forms; also called Sumo-BCMA; SumoBCMA
T4 chain: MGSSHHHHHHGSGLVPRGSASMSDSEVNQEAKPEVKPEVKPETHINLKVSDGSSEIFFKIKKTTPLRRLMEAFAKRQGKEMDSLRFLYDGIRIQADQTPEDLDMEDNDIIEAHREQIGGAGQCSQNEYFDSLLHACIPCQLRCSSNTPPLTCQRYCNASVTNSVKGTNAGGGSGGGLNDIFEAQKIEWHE

[10] = biological target: T5, rrat BCMA fusion protein (GS::6xHis::Sumo::ratBCMA(aa 2-49)::GGS::G3::Avi) (rat); experiment: Biacore, antibody captured, rrat BCMA analyte
T5 chain: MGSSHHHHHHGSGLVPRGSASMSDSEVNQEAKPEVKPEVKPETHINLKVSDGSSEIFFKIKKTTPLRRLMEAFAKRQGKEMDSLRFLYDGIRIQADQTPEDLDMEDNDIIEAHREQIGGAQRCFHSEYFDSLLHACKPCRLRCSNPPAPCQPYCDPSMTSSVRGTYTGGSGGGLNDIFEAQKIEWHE

[11] = biological target: T4, rhuBCMA fusion protein …; experiment: Biacore, antibody captured, rhu BCMA analyte
[12] = biological target: T5, rrat BCMA fusion protein …; experiment: Biacore, antibody captured, rrat BCMA analyte

| Binder | MFI [1] | MFI [2] | MFI [3] | MFI [4] | also measured |
| --- | --- | --- | --- | --- | --- |
| B1 | 97700 MFI | 1360 MFI | 51200 MFI | 122 MFI |  |
| B2 |  |  |  |  | IC50, CellTiter-Glo cell viability, H929 cells, 96 h [5]: 0.68 nM |
| B3 |  |  |  |  | IC50, CellTiter-Glo cell viability, H929 cells, 96 h [5]: 0.63 nM |
| B4 | 109000 MFI | 555 MFI | 78500 MFI | 130 MFI |  |
| B5 |  |  |  |  | IC50, CellTiter-Glo cell viability, H929 cells, 96 h [5]: 2.2 nM |
| B6 |  |  |  |  | IC50 (nM DM1), cell viability, EW36 [5]: 30 nM DM1; IC50 (nM DM1), cell viability, H929 [5]: 0.6 nM DM1; IC50 (nM DM1), cell viability, MM1R [5]: 3.9 nM DM1; IC50 (nM DM1), cell viability, MM1S [5]: 1 nM DM1; IC50 (nM DM1), cell viability, RAMOS [5]: 32 nM DM1; IC50 (nM DM1), cell viability, U266 [5]: 0.8 nM DM1; IC50, CellTiter-Glo cell viability, H929 cells, 96 h [5]: 2.4 nM |
| B7 |  |  |  |  | ADCC EC50 [6]: 0.043 µg/mL; EC50 (read off the curve) [7]: ~0.2 µg/mL |
| B8 |  |  |  |  | IC50 in an H929 tumor cell growth inhibition assay (antibody concentration) [5]: ~0.078 nM |
| B9 |  |  |  |  | IC50, H929 cell growth (CellTiter-Glo, 96 h) [5]: 0.506 nM; EC50 [8]: 7 nM |
| B10 |  |  |  |  | Kd [9]: 1.11 nM; Kd [10]: 2.35 nM |
| B11 |  |  |  |  | IC50, H929 cell growth (CellTiter-Glo, 96 h) [5]: 0.39 nM |
| B12 | 129000 MFI | 506 MFI | 198000 MFI | 152 MFI |  |
| B13 | 137000 MFI | 274 MFI | 257000 MFI | 108 MFI |  |
| B14 |  |  |  |  | Kd [11]: 0.75 nM; Kd [12]: 2.07 nM |
| B15 | 82600 MFI | 256 MFI | 97300 MFI | 110 MFI |  |
| B16 | 83700 MFI | 1040 MFI | 136000 MFI | 104 MFI |  |
